As usually defined, the Kd is the constant that tells how readily two partners part at equilibrium.

The test concerns the target HSPA5 protein (wild type, in vitro systems, ITC and SPR) (UniProt P20029 20-655). Description: ITC. (ITC needs no label: the signal is the heat of the interaction.)

Chain of HSPA5 protein (wild type, in vitro systems, ITC and SPR) (P20029 20-655): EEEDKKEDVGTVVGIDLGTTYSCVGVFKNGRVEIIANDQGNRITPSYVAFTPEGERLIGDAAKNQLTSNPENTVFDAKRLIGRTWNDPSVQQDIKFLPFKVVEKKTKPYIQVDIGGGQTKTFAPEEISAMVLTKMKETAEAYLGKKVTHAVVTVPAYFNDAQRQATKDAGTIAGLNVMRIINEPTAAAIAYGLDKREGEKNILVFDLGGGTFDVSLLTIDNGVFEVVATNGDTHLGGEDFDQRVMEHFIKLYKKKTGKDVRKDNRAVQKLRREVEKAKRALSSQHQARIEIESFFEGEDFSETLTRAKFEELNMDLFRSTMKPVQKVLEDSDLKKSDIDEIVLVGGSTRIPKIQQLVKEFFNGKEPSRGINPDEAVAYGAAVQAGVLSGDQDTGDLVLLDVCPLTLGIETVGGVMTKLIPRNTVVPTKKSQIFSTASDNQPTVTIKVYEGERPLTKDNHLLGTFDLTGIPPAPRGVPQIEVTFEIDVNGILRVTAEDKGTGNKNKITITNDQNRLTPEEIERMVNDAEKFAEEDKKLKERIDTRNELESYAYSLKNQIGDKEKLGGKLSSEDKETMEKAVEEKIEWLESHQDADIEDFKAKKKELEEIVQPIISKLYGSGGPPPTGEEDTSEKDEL

B1: ATAT1 protein (in vitro acetylation system, ITC and SPR) (enzyme)
chain: MEFPFDVDALFPERITVLDQHLRPPARRPGTTTPARVDLQQQIMTIVDELGKASAKAQHLPAPITSALRMQSNRHVIYILKDTSARPAGKGAIIGFLKVGYKKLFVLDDREAHNEVEPLCILDFYIHESVQRHGHGRELFQHMLQKERVEPHQLAIDRPSPKLLKFLNKHYNLETTVPQVNNFVIFEGFFAHQHRPPTSSLRATRHSRAAVADPIPAAPARKLPPKRAEGDIKPYSSSDREFLKVAVEPPWPLNRAPRRATPPAHPPPRSSSLGNSPDRGPLRPFVPEQELLRSLRLCPPHPTARLLLATDPGGSPAQRRRTRGTPWGLVAQSCHYSRHGGFNTSFLGTGNQERKQGEQEAEDRSASEDRVLLLDGSGEEPTQTGAPRAQAPPPQSWTVGGDIMNARVIRNLQERRSTRPW
As to B1, the Kd came to 110 nM.

B2: SCNN1B protein (in vitro ubiquitination system, ITC and SPR) (natural protein)
chain: MPVKKYLLKCLHRLQKGPGYTYKELLVWYCNNTNTHGPKRIICEGPKKKAMWFLLTLLFACLVCWQWGVFIQTYLSWEVSVSLSMGFKTMNFPAVTVCNSSPFQYSKVKHLLKDLDELMEAVLEKILAPEASHSNTTRTLNFTIWNHTPLVLIDERNPDHPVVLNLFGDSHNSSNPAPGSTCNAQGCKVAMRLCSANGTVCTLRNFTSATQAVTEWYILQATNIFSQVLPQDLVGMGYAPDRIILACLFGTEPCSHRNFTPIFYPDYGNCYIFNWGMTEETLPSANPGTEFGLKLILDIGQEDYVPFLASTAGARLMLHEQRTYPFIREEGIYAMAGTETSIGVLVDKLQRKGEPYSPCTMNGSDVAIKNLYSVYNTTYSIQACLHSCFQDHMIRNCSCGHYLYPLPEGEKYCNNRDFPDWAYCYLNLQMSVTQRETCLSMCKESCNDTQYKMTISMADWPSEASEDWILHVLSQERDQSSNITLSRKGIVKLNIYFQEFNYRTIEESPANNIVWLLSNLGGQFGFWMGGSVLCLIEFGEIIIDFIWITIIKLVASCKGLRRRRPQAPYTGPPPTVAELVEAHTNFGFQPDTTSCRPHGEVYPDQQTLPIPGTPPPNYDSLRLQPLDTMESDSEVEAI
Take B2: the affinity, expressed as Kd, was 860 nM.

The record behind these values is paper PMC10656488 (2023).
